Measurements: the supplement of paper PMC7125110
± gives the standard error. Fewer inactive variants are shown than the library holds.

B1: glmS ribozyme (parent)
chain: AUAAAAGCGCCAGAACUACAGAAAUGUAGUUGACGAGGAGGAGGUUUAUCGAAUUUUCGGCGGAUGCCUCCAAA

How the values were obtained:
Conditions in all cases: with glucosamine-6-phosphate
glucosamine-6-phosphate [1] = variants of: B1; assay: self-cleavage kobs at 40 uM GlcN6P; higher = faster cleavage; RNA array
Outline: (§1)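 E. coli RNA polymerase transcribed barcoded ribozyme variants in situ on sequenced MiSeq chips, which were tracked via a hybridised Cy3 probe at 37 °C. Tiles were imaged over ~14 h after glucosamine-6-phosphate (40 μM to 10 mM) in HEPES/KCl/Mg(OAc)2 buffer was flowed in. Normalised per-tile medians were fit to one- or two-exponential decays for kobs, and kcat and KM came from weighted Michaelis–Menten fits.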

glucosamine-6-phosphate [2] = variants of: B1; assay: self-cleavage kobs at 160 uM GlcN6P; higher = faster cleavage; RNA array
Outline: as §1

glucosamine-6-phosphate [3] = variants of: B1; assay: self-cleavage kobs at 2500 uM GlcN6P; higher = faster cleavage; RNA array
Outline: as §1

glucosamine-6-phosphate [4] = variants of: B1; assay: self-cleavage kobs at 10000 uM GlcN6P; higher = faster cleavage; RNA array
Outline: as §1

glucosamine-6-phosphate [5] = variants of: B1; assay: self-cleavage kobs at 640 uM GlcN6P; higher = faster cleavage; RNA array
Outline: as §1

| Variant | self-cleavage kobs at 40 uM GlcN6P (glucosamine-6-phosphate [1]) [s⁻¹] | self-cleavage kobs at 160 uM GlcN6P (glucosamine-6-phosphate [2]) [s⁻¹] | self-cleavage kobs at 2500 uM GlcN6P (glucosamine-6-phosphate [3]) [s⁻¹] | self-cleavage kobs at 10000 uM GlcN6P (glucosamine-6-phosphate [4]) [s⁻¹] | self-cleavage kobs at 640 uM GlcN6P (glucosamine-6-phosphate [5]) [s⁻¹] |
| --- | --- | --- | --- | --- | --- |
| C11A G40C U54A | < 1e-05 | – | – | – | – |
| C10U A15C C34A A36G G43C U49C | < 1e-05 | < 1e-05 | < 1e-05 | < 1e-05 | – |
| C11A G35C | < 1e-05 | < 1e-05 | < 1e-05 | – | < 1e-05 |
| C10G G37U G40C G41U C50G | < 1e-05 | – | – | – | – |
| C11G G44C G60A | < 1e-05 | < 1e-05 | – | < 1e-05 | – |
| C11U U30C C50U | < 1e-05 | – | – | < 1e-05 | – |
| C11A U31C G44C C70U | < 1e-05 | – | – | – | – |
| C10U A12G U46A U47G U49G | < 1e-05 | – | – | – | – |
| C11G U30C U31G | < 1e-05 | – | – | – | – |
| A12C G38A | < 1e-05 | < 1e-05 | – | – | – |
| C11G G59A C68A | < 1e-05 | – | – | < 1e-05 | – |
| C11A C70G | 2.86e-05 ± 1.2e-05 | 4.84e-05 ± 2e-05 | 5.3e-05 ± 1.3e-05 | 3.06e-05 ± 1.1e-05 | 0.00013 ± 2.5e-05 |
| C10U A36U U65G | < 1e-05 | – | – | – | – |
| C10U A12U G51U U56A | < 1e-05 | – | – | < 1e-05 | – |
| C10A G13C | < 1e-05 | < 1e-05 | < 1e-05 | < 1e-05 | – |
| C11A G29U G32U G44A | < 1e-05 | – | – | – | – |
| A12C A53U G62U | < 1e-05 | – | – | < 1e-05 | – |
| A12C A36C A48G C61U C70A | < 1e-05 | – | – | – | – |
| C11G U30G A36C A64U U65C | < 1e-05 | < 1e-05 | < 1e-05 | < 1e-05 | < 1e-05 |
| C11U G37A G66U | < 1e-05 | – | – | – | – |
| C10G G51C | < 1e-05 | < 1e-05 | – | < 1e-05 | < 1e-05 |
| C10U G60C | < 1e-05 | < 1e-05 | < 1e-05 | < 1e-05 | < 1e-05 |
| A12C C58A G63A | < 1e-05 | – | – | – | – |
| C10U A14G U55C A64G G66U | < 1e-05 | – | – | – | – |
| C10U A52C | < 1e-05 | – | – | < 1e-05 | – |
| C10G U57G | < 1e-05 | – | < 1e-05 | < 1e-05 | < 1e-05 |

| Variant | self-cleavage kobs at 40 uM GlcN6P (glucosamine-6-phosphate [1]) [s⁻¹] | self-cleavage kobs at 160 uM GlcN6P (glucosamine-6-phosphate [2]) [s⁻¹] | self-cleavage kobs at 2500 uM GlcN6P (glucosamine-6-phosphate [3]) [s⁻¹] | self-cleavage kobs at 10000 uM GlcN6P (glucosamine-6-phosphate [4]) [s⁻¹] | self-cleavage kobs at 640 uM GlcN6P (glucosamine-6-phosphate [5]) [s⁻¹] |
| --- | --- | --- | --- | --- | --- |
| C10G G29U U31C A36U C68A C71U | < 1e-05 | – | – | – | – |
| C11A C58A A64G | < 1e-05 | – | – | – | – |
| C10G G32C A48U | < 1e-05 | – | – | < 1e-05 | – |
| C10G A14U C34A U49G | < 1e-05 | – | – | – | – |
| C11G G41A | < 1e-05 | – | < 1e-05 | < 1e-05 | < 1e-05 |
| A12C A33U A53U C68A A73C | < 1e-05 | – | – | – | – |
| C10G U30A C71G | < 1e-05 | – | – | – | – |
| A12C C34G G37U | < 1e-05 | – | – | < 1e-05 | – |
| A12C C16G | 8.16e-05 ± 1.1e-05 | 0.000158 ± 3.6e-05 | 0.00161 ± 0.00035 | 0.00517 ± 0.00083 | 0.00067 ± 0.00012 |
| C10G U45G | < 1e-05 | < 1e-05 | < 1e-05 | < 1e-05 | < 1e-05 |
| C11U G29C A53U U56G C70A | 0.000205 ± 4.8e-05 | – | – | 0.000369 ± 8.6e-05 | – |
| C11U A33G | < 1e-05 | < 1e-05 | < 1e-05 | < 1e-05 | – |
| C10U U47A G62U A64U U69A | < 1e-05 | – | – | – | – |
| C11G A15C G29U A64U C70U | < 1e-05 | – | – | < 1e-05 | – |
| C11G C16A U69G | 6.17e-05 ± 2.3e-05 | – | – | 5.6e-05 ± 1.7e-05 | – |
| C11A U30C | < 1e-05 | < 1e-05 | 4.93e-05 ± 1.8e-05 | – | – |
| C10G G41U | < 1e-05 | < 1e-05 | < 1e-05 | < 1e-05 | < 1e-05 |
| C11G A53C | < 1e-05 | < 1e-05 | < 1e-05 | < 1e-05 | < 1e-05 |
| C11G G43C | < 1e-05 | < 1e-05 | – | < 1e-05 | < 1e-05 |
| C11G U57A | < 1e-05 | < 1e-05 | – | – | < 1e-05 |
| C11A A12C A64C | < 1e-05 | – | < 1e-05 | < 1e-05 | – |
| C10A U30C C61A | < 1e-05 | – | – | – | – |
| C10A U49A C61U G62U | < 1e-05 | – | – | – | – |
| A12C A14G A15C | 0.000144 ± 2.4e-05 | – | 0.00354 ± 0.00082 | – | 0.00124 ± 0.0003 |
| C10G A33U G35U G60U | < 1e-05 | – | – | < 1e-05 | – |
